We go through one substance from patent publication US7592168B2, “Cephalosporin C acylase mutant and method for preparing 7-ACA using same” (Sandoz AG, priority 2003, dated 2009).

This data set relates to [H][C@]12SCC(COC(C)=O)=C(C(=O)O)N1C(=O)[C@H]2NC(=O)CCC[C@@H](N)C(=O)O. As to the kind of experiment: CPC hydrolysis kinetics (Lineweaver-Burk plot), fivefold mutant. Type of data set: biochemical, Pseudomonas sp. SE83. As to conditions: other: substrate CPC, purified enzyme, 0.1 M Tris-HCl pH 8.0, 37° C. The method, then:
The enzyme activity of CPC acylase mutant to CPC was measured according to the method described by Park et al. with minor modifications as follows (Park, et al., Kor. J. Appl. Microbiol. Biotechnol. 23: 559-564, 1995). A substrate solution was prepared by dissolving CPC (purity 74.2%; CJ Corp., Korea) in 0.1 M Tris-HCl buffer solution (pH 8.0) at a concentration of 20 mg/ml and adjusting pH to 8 with 1 N NaOH. 20 μl of the CPC solution was mixed with 20 μl of the crude enzyme solution prepared above and the reaction mixture was incubated at 37° C. for 5 min. After the reaction, the mixture (200 μl) of 50 mM NaOH and 20% glacial acetic acid (1:2) was added thereto to stop the reaction. 200 μl of the supernatant recovered from the reaction mixture by centrifugation was mixed with 40 μl of 0.5% (w/v) PDAB (p-dimethylaminobenzaldehyde; Sigma, USA) dissolved in a methanol and the reaction mixture was incubated at 37° C. for 10 min. After the reaction, the absorbance of reaction mixture was measured at 415 nm and quantified by comparing with a calibration curve of standard material. […] Meanwhile, the specific activity of CPC acylase mutant for CPC was determined by measuring the amount of protein remaining in the enzyme solution according to the method described by Bradford (Bradford, M., Anal. Biochem. 72: 248-254, 1976) and representing it as an active unit corresponding to 1 mg of protein. […]

Turning to “Pseudomonas sp. SE83 CPC acylase AcyII fivefold mutant F169αY/M31βL/F58βM/H70βS/I176βV (mI176) (Pseudomonas sp. SE83; F170Y/F297M/H309S/I415V/M270L)”, the Km worked out at 8 mM.
